# Data taken from PMC4087167 (Cell, 2014).
# B1: GRLBD(F602S) (domain or fragment, UniProt P04150 521-777, looked up)
# chain: VPATLPQLTPTLVSLLEVIEPEVLYAGYDSSVPDSTWRIMTTLNMLGGRQVIAAVKWAKAIPGFRNLHLDDQMTLLQYSWMSLMAFALGWRSYRQSSANLLCFAPDLIINEQRMTLPCMYDQCKHMLYVSSELHRLQVSYEEYLCMKTLLLLSSVPKDGLKSQELFDEIRMTYIKELGKAIVKREGNSSQNWQRFYQLTKLLDSMHEVVENLLNYCFQTFLDKTMSIEFPEMLAEIITNQIPKYSNGNIKKLLFHQK
# How the values were obtained:
# Hsp90(D93N) = Hsp90(D93N) (human, UniProt P07900 1-732, D93N); experiment: pull-down
# Hsp90(E47A) = Hsp90(E47A) (human, UniProt P07900 1-732, E47A); experiment: pull-down
# Human Hsp90α [1] = molecular target: T1, Human Hsp90α (human, UniProt P07900 1-732); experiment: pull-down
# Human HOP = Human HOP (human, UniProt P31948 1-543); experiment: pull-down
# Human Hsp90α [2] = molecular target: T1, Human Hsp90α; experiment: cryo-EM structure
# GRLBD(F602S) = molecular target: B1; experiment: pull-down
binder,measurement,setting,value
B1,binding result,Hsp90(D93N),binds
same,binding result,Hsp90(E47A),binds
same,binding result,Human Hsp90α [1],binds
same,binding result,Human HOP,binds
"MBP-GRLBD(F602S) (domain or fragment, UniProt P04150 521-777, looked up) VPATLPQLTPTLVSLLEVIEPEVLYAGYDSSVPDSTWRIMTTLNMLGGRQVIAAVKWAKAIPGFRNLHLDDQMTLLQYSWMSLMAFALGWRSYRQSSANLLCFAPDLIINEQRMTLPCMYDQCKHMLYVSSELHRLQVSYEEYLCMKTLLLLSSVPKDGLKSQELFDEIRMTYIKELGKAIVKREGNSSQNWQRFYQLTKLLDSMHEVVENLLNYCFQTFLDKTMSIEFPEMLAEIITNQIPKYSNGNIKKLLFHQK",binding result,Human Hsp90α [2],binds
"Human p23 (natural protein, UniProt Q15185 1-160, looked up) MQPASAKWYDRRDYVFIEFCVEDSKDVNVNFEKSKLTFSCLGGSDNFKHLNEIDLFHCIDPNDSKHKRTDRSILCCLRKGESGQSWPRLTKERAKLNWLSVDFNNWKDWEDDSDEDMSNFDRFSEMMNNMGGDEDVDLPEVDGADDDSQDSDDEKMPDLE",binding result,Human Hsp90α [1],binds
same,binding result,GRLBD(F602S),binds
